These results are taken from PMC10662749.

“Also recorded” adds a separate entry of the source.

The conditions of one data set: glycan changed form.
Turning to “SARS-CoV-2 spike, B.1.617.2 (Delta): 20 μM swainsonine”, the “other: pseudovirus infectivity” value was “no change”.
For “SARS-CoV-2 spike, B.1.617.2 (Delta): 50 μM kifunensine”, the “other: proteolytic processing” value is “no change” and the “other: pseudovirus infectivity” value is reported as “decreases”.
In the same order, the values of “SARS-CoV-2 spike, B.1.617.2 (Delta): GnTI- cells” are “no change” and “decreases”.
As to “SARS-CoV-2 spike, BA.1 (Omicron): 20 μM swainsonine”, the “other: neutralisation sensitivity, other: maximum % neutralisation” value (“other … maximum % neutralisation” for short) is listed as “no change, 74 ± 7 vs 54 ± 7”; the “other: proteolytic processing” value is reported as “no change”; the “other: pseudovirus infectivity, fold_change” value was “no change”.
Turning to “SARS-CoV-2 spike, BA.1 (Omicron): 50 μM kifunensine”, the “other: proteolytic processing” value is recorded as “no change” and the “other: pseudovirus infectivity, fold_change” value is “abolishes”.
For the substance “SARS-CoV-2 spike, BA.1 (Omicron): GnTI- cells”, the “other: proteolytic processing” value is given as “no change” and the “other: pseudovirus infectivity, fold_change” value was “abolishes”.
With “SARS-CoV-2 spike, D614G: 20 μM swainsonine”, the “other: pseudovirus infectivity” value is “no change”.
For “SARS-CoV-2 spike, D614G: 50 μM kifunensine”, the “other … maximum % neutralisation” value is “no change, 55 ± 9 vs 64 ± 4”; the “other: proteolytic processing” value is listed as “no change”; the “other: pseudovirus infectivity” value was “decreases”.

Still in this data set, the particulars now being: glycan lost.
Consider “SARS-CoV-2 spike, B.1.617.2 (Delta): N717Q”, for which the “other: pseudovirus infectivity” value is “no change”.
Same read-out and setting: for “SARS-CoV-2 spike, B.1.617.2 (Delta): N801Q” the value was “no change”.
For SARS-CoV-2 spike, BA.1 (Omicron): N17Q, the “other: neutralisation sensitivity” value is listed as “no change”.
On to SARS-CoV-2 spike, BA.1 (Omicron): N61Q, for which the “other: neutralisation sensitivity” value is “no change” and the “other … maximum % neutralisation” value is listed as “no change, 73 ± 10 vs 79 ± 7”.
SARS-CoV-2 spike, BA.1 (Omicron): N74Q: the “other: neutralisation sensitivity” value is reported as “no change” and the “other … maximum % neutralisation” value is recorded as “no change, 77 ± 9 vs 79 ± 7”.
Turning to SARS-CoV-2 spike, BA.1 (Omicron): N122Q, the “other: neutralisation sensitivity” value was “no change” and the “other … maximum % neutralisation” value is “decreases, 36 ± 19 vs 79 ± 7”.
As for SARS-CoV-2 spike, BA.1 (Omicron): N149Q, the “other: neutralisation sensitivity” value is “no change”.
As to SARS-CoV-2 spike, BA.1 (Omicron): N165Q, the “other: neutralisation sensitivity” value was “no change” and the “other … maximum % neutralisation” value was “no change, 79 ± 7 vs 79 ± 7”.
As for SARS-CoV-2 spike, BA.1 (Omicron): N234Q, the “other … maximum % neutralisation” value is reported as “no change, 87 ± 4 vs 79 ± 7”.
For the substance SARS-CoV-2 spike, BA.1 (Omicron): N282Q, the “other: neutralisation sensitivity” value is reported as “no change”.
Turning to SARS-CoV-2 spike, BA.1 (Omicron): N331Q, the “other: neutralisation sensitivity” value is “no change”.
Regarding SARS-CoV-2 spike, BA.1 (Omicron): N343Q, the “other: neutralisation sensitivity” value was “no change” and the “other … maximum % neutralisation” value is “no change, 82 ± 6 vs 79 ± 7”.
For SARS-CoV-2 spike, BA.1 (Omicron): N603Q, the “other: neutralisation sensitivity” value was “no change”.
On the same count and under the same terms, for SARS-CoV-2 spike, BA.1 (Omicron): N616Q the value was “no change”; for SARS-CoV-2 spike, BA.1 (Omicron): N657Q, “no change”; for SARS-CoV-2 spike, BA.1 (Omicron): N709Q, “no change”.
Regarding SARS-CoV-2 spike, BA.1 (Omicron): N717A, the “other: pseudovirus infectivity, fold_change” value was “decreases”.
As to SARS-CoV-2 spike, BA.1 (Omicron): N717Q, the “other: proteolytic processing” value was “decreases”.
Consider SARS-CoV-2 spike, BA.1 (Omicron): N801A, for which the “other: pseudovirus infectivity, fold_change” value is reported as “abolishes”.
With SARS-CoV-2 spike, BA.1 (Omicron): N801Q, the “other: proteolytic processing” value is given as “decreases”.
Regarding “SARS-CoV-2 spike, BA.1 (Omicron): N1074Q”, the “other: neutralisation sensitivity” value was “no change”; the “other … maximum % neutralisation” value is given as “no change, 86 ± 13 vs 79 ± 7”; the “other: pseudovirus particle yield (p24)” value was “decreases”.
On to “SARS-CoV-2 spike, BA.1 (Omicron): N1098Q”, for which the “other: neutralisation sensitivity” value is on record as “no change”; the “other … maximum % neutralisation” value is given as “no change, 85 ± 7 vs 79 ± 7”; the “other: pseudovirus particle yield (p24)” value is recorded as “decreases”.
With “SARS-CoV-2 spike, BA.1 (Omicron): N1134Q”, the “other: neutralisation sensitivity” value is on record as “no change” and the “other … maximum % neutralisation” value is “no change, 73 ± 15 vs 79 ± 7”.
Consider “SARS-CoV-2 spike, BA.1 (Omicron): N1158Q”, for which the “other: neutralisation sensitivity” value is given as “no change” and the “other … maximum % neutralisation” value is given as “no change, 86 ± 34 vs 79 ± 7”.
“SARS-CoV-2 spike, BA.1 (Omicron): N1173Q”: the “other: neutralisation sensitivity” value is recorded as “no change” and the “other … maximum % neutralisation” value is recorded as “no change, 80 ± 9 vs 79 ± 7”.
For the substance “SARS-CoV-2 spike, BA.1 (Omicron): N1194Q”, the “other: neutralisation sensitivity” value is listed as “no change” and the “other … maximum % neutralisation” value is “no change, 75 ± 11 vs 79 ± 7”.
Turning to SARS-CoV-2 spike, BA.4 (Omicron): N717Q, the “other: pseudovirus infectivity, fold_change” value was “abolishes”.
Same read-out and setting: for SARS-CoV-2 spike, BA.4 (Omicron): N801Q the value was “abolishes”; for “SARS-CoV-2 spike, BQ.1.1 (Omicron): N717Q”, “abolishes”; for “SARS-CoV-2 spike, BQ.1.1 (Omicron): N801Q”, “abolishes”.
Take SARS-CoV-2 spike, D614G: N17Q: the “other: neutralisation sensitivity” value is “no change”.
In the case of SARS-CoV-2 spike, D614G: N61Q, the “other: neutralisation sensitivity” value is “no change”; the “other … maximum % neutralisation” value is recorded as “no change, 61 ± 4 vs 64 ± 4”; the “other: proteolytic processing” value is given as “decreases”; the “other: pseudovirus infectivity, fold_change” value was “decreases”.
In the case of SARS-CoV-2 spike, D614G: N74Q, the “other: neutralisation sensitivity” value is recorded as “no change” and the “other … maximum % neutralisation” value is “no change, 62 ± 3 vs 64 ± 4”.
Consider SARS-CoV-2 spike, D614G: N122Q, for which the “other: neutralisation sensitivity” value is “no change”; the “other … maximum % neutralisation” value was “no change, 62 ± 9 vs 64 ± 4; also recorded: decreases, 29 ± 4 vs 65 ± 7”; the “other: pseudovirus infectivity, fold_change” value is on record as “decreases”.
For SARS-CoV-2 spike, D614G: N149Q, the “other: neutralisation sensitivity” value is reported as “no change”.
The same measure, in the same setting: for SARS-CoV-2 spike, D614G: N165Q the value was “no change”.
SARS-CoV-2 spike, D614G: N234Q: the “other: neutralisation sensitivity, fold_change” value is “decreases”.
Take SARS-CoV-2 spike, D614G: N282Q: the “other: neutralisation sensitivity” value is recorded as “no change” and the “other: neutralisation sensitivity, fold_change” value is recorded as “decreases”.
As to SARS-CoV-2 spike, D614G: N331Q, the “other: neutralisation sensitivity” value is on record as “no change” and the “other … maximum % neutralisation” value was “no change, 60 ± 4 vs 64 ± 4”.
Regarding SARS-CoV-2 spike, D614G: N343Q, the “other: neutralisation sensitivity” value is on record as “no change” and the “other: pseudovirus infectivity, fold_change” value was “decreases”.
As for SARS-CoV-2 spike, D614G: N603Q, the “other: neutralisation sensitivity” value is recorded as “no change” and the “other … maximum % neutralisation” value was “no change, 62 ± 3 vs 64 ± 4”.
SARS-CoV-2 spike, D614G: N616Q: the “other: neutralisation sensitivity” value is listed as “no change” and the “other … maximum % neutralisation” value was “no change, 64 ± 7 vs 64 ± 4”.
On to SARS-CoV-2 spike, D614G: N657Q, for which the “other: neutralisation sensitivity” value is on record as “no change” and the “other … maximum % neutralisation” value is “no change, 58 ± 4 vs 64 ± 4”.
Take SARS-CoV-2 spike, D614G: N709Q: the “other: neutralisation sensitivity” value is reported as “no change” and the “other … maximum % neutralisation” value is “no change, 69 ± 6 vs 64 ± 4”.
Take SARS-CoV-2 spike, D614G: N717Q: the “other: neutralisation sensitivity” value is reported as “no change”; the “other … maximum % neutralisation” value is reported as “no change, 67 ± 9 vs 64 ± 4; also recorded: decreases, 43 ± 6 vs 65 ± 7”; the “other: pseudovirus infectivity, fold_change” value was “decreases”.
Consider SARS-CoV-2 spike, D614G: N801Q, for which the “other: neutralisation sensitivity” value is “no change”; the “other … maximum % neutralisation” value is “no change, 63 ± 4 vs 64 ± 4; also recorded: no change, 74 ± 7 vs 65 ± 7”; the “other: pseudovirus infectivity, fold_change” value was “decreases”.
On to SARS-CoV-2 spike, D614G: N1074Q, for which the “other: neutralisation sensitivity” value is recorded as “no change”; the “other … maximum % neutralisation” value was “no change, 61 ± 4 vs 64 ± 4; also recorded: decreases, 45 ± 6 vs 65 ± 7”; the “other: pseudovirus infectivity, fold_change” value is reported as “decreases”.
For the substance SARS-CoV-2 spike, D614G: N1098Q, the “other: neutralisation sensitivity” value was “no change” and the “other … maximum % neutralisation” value is recorded as “no change, 69 ± 11 vs 64 ± 4”.
For SARS-CoV-2 spike, D614G: N1134Q, the “other: neutralisation sensitivity” value is on record as “no change” and the “other … maximum % neutralisation” value was “no change, 65 ± 5 vs 64 ± 4; also recorded: no change, 65 ± 4 vs 65 ± 7”.
As to SARS-CoV-2 spike, D614G: N1158Q, the “other: neutralisation sensitivity” value was “no change” and the “other … maximum % neutralisation” value was “no change, 63 ± 3 vs 64 ± 4”.
For the substance SARS-CoV-2 spike, D614G: N1173Q, the “other: neutralisation sensitivity” value is on record as “no change” and the “other … maximum % neutralisation” value is given as “no change, 73 ± 14 vs 64 ± 4; also recorded: decreases, 50 ± 5 vs 65 ± 7”.
